Values of other authors in paper PMC3569056.

Target: Cys22 (UniProt position 23, FIKPTCPYCRR)
Experiment: chemical modification

## Glutaredoxin 1 (hGrx1, thioltransferase) (Homo sapiens)
  pKa: 3.5
